What was measured:
rat PTH1 receptors = target: T1, rat PTH1 receptors (Rattus norvegicus, UniProt P25961); assay: in vitro ability to produce cAMP, EW29 cells; format: cell-based; conditions: Table 2(3), n=2-3
T1 construct: expressed in transfected cells; host or cells: EW29 cells
T1 sequence (P25961 27-591): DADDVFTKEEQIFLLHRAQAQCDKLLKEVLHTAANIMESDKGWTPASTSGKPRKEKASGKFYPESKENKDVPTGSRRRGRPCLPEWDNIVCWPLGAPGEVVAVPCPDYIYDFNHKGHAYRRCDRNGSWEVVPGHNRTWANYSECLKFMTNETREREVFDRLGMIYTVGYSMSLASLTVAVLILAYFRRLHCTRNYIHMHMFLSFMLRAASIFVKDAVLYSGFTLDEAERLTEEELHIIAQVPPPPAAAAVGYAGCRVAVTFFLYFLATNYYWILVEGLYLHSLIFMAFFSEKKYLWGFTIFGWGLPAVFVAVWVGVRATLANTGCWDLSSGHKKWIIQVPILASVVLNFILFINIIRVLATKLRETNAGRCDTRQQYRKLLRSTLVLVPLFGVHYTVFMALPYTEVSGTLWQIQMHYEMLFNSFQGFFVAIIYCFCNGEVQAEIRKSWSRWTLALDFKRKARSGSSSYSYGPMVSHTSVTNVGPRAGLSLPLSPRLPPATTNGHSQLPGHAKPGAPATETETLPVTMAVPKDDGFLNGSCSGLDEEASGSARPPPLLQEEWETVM
Procedure: Each PEG-PTH sample was assayed for its ability to produce cAMP (indicative of the increasing effect of PTH on bone mass) as follows. […] These cells were seeded in 96-well plates at 1×10^5 cells/well and incubated overnight. […] After removing the reaction solution, the plates were placed on powdered dry ice to freeze the cells and then removed from the dry ice. The cells were thawed with 50 μL of 50 mM HCl and frozen again on dry ice. The level of intracellular cAMP was determined with a commercially available EIA kit (Biotrak cAMP EIA system, Amersham).

human PTH1 receptors = target: T2, human PTH1 receptors (Homo sapiens, UniProt Q03431); assay: in vitro ability to produce cAMP, HKRK-B64 cells; format: cell-based; conditions: Table 2(2), n=2-3
T2 construct: expressed in transfected cells; host or cells: HKRK-B7 and HKRK-B64 cells (derived from pig kidney LLC-PK1 cells)
T2 sequence (Q03431 27-593): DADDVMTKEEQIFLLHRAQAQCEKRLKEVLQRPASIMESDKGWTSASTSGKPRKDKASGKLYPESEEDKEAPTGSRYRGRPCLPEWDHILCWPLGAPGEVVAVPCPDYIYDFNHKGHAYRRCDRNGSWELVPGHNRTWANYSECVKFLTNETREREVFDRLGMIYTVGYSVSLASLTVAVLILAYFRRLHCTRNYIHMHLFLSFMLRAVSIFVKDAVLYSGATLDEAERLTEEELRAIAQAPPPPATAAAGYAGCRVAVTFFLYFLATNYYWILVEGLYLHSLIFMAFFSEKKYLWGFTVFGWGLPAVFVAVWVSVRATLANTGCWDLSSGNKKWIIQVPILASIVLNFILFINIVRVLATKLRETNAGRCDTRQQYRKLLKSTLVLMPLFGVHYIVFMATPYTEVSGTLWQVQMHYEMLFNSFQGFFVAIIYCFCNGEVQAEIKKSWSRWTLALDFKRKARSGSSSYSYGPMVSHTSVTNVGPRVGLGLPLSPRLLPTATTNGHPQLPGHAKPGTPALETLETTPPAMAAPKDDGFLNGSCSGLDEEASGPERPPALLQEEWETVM
Procedure: Each PEG-PTH sample was assayed for its ability to produce cAMP (indicative of the increasing effect of PTH on bone mass) as follows. HKRK-B7 and HKRK-B64 cells, genetically modified from pig kidney-derived LLC-PK1 cells to overexpress human PTH1 receptors at levels of about 1×10^6 and 9×10^4 receptors per cell, respectively, as well as EW29 cells expressing about 1.9×10^5 rat PTH1 receptors per cell (Takasu et al., J. Bone. Miner. Res. 14: 11-20, 1999) were grown in DMEM supplemented with 10% FBS, 1% penicillin and 1% streptomycin. These cells were seeded in 96-well plates at 1×10^5 cells/well and incubated overnight. On the following day, the cells were washed once with 200 μL binding buffer (50 mM Tris-HCl/100 mM NaCl/5 mM KCl/2 mM CaCl2/5% inactivated horse serum/0.5% inactivated bovine serum, pH 7.7), followed by addition of 100 μL cAMP assay buffer (DMEM/2 mM 3-isobutyl-1-methylxanthine/1 mg/mL bovine serum albumin/35 mM HEPES-NaOH, pH 7.4) on ice. […] After removing the reaction solution, the plates were placed on powdered dry ice to freeze the cells and then removed from the dry ice. The cells were thawed with 50 μL of 50 mM HCl and frozen again on dry ice. The level of intracellular cAMP was determined with a commercially available EIA kit (Biotrak cAMP EIA system, Amersham).

Substance: 2 k PEG-[Cys^35]-hPTH(1-35): [Cys^35]-PTH(1-35) conjugated with mPEG 2 k-MAL (2 kDa methoxy-PEG-maleimide) at the C-terminal cysteine (SVSEIQLMHNLGKHLNSMERVEWLRKKLQDVHNFC; Parathyroid hormone 2 kDa mPEG-maleimide at Cys35; UniProt P01270 32-66, looked up, variant V35C)
- Maximum cAMP response (rat PTH1 receptors): 52.2 ± 12.3 pmol/well
- EC50 (rat PTH1 receptors; cAMP production): 2.2 nM
- Maximum cAMP response (human PTH1 receptors): 65.4 ± 19.4 pmol/well
- EC50 (human PTH1 receptors; cAMP production): 0.6 nM

From US20050148763A1, “Peg-binding pth or peg-binding pth derivative” (Chugai Seiyaku Kabushiki Kaisha, priority 2002, published 2005)
